Results published in patent US20240270821A1, “GIP/GLP1/GCG TRI-RECEPTOR AGONISTS AND USES THEREOF” (priority 2023, published 2024).
Starred links: 1 amine or outer side, 2 acyl side, 3 side chain; linkers in the order of their positions; H or OH if unused. Non-standard residues stand in square brackets, D forms with d. Groups on a side chain read outwards from the residue. No end group written: not given here. *: point of attachment. C18 diacid = O=C(O)CCCCCCCCCCCCCCCCC(=O)*; γGlu = O=C(O)[C@H](CCC(=O)[*:2])N[*:1]; αMeL = CC(C)C[C@](C)(N)C(=O)O; Dab = NCC[C@H](N)C(=O)O; Dap = NC[C@H](N)C(=O)O; AEEA = NCCOCCOCC(=O)O; Aib = CC(C)(N)C(=O)O

Experiments:
Assay in all cases: cell-based or functional assay
[1] = molecular target: human glucagon receptor (human) (UniProt P47871)
[2] = molecular target: T1, human GIP receptor (human) (UniProt P48546)
T1 sequence (looked up): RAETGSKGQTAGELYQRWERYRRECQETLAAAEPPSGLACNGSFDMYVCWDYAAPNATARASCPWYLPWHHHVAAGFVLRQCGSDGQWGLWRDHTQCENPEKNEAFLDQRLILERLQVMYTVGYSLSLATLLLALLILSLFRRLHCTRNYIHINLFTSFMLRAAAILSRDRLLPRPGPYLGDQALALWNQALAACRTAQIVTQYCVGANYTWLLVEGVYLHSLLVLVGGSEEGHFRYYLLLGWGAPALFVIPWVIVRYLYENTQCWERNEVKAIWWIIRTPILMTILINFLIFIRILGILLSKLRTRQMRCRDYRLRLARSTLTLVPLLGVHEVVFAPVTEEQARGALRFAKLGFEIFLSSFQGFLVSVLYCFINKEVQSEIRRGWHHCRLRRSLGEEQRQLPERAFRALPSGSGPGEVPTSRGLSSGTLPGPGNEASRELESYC

[3] = molecular target: human GLP1-R (SNAP-GLP-1R expressed in HEK293 cells) (human) (UniProt P43220)
[4] = molecular target: hGLP-1R (Homo sapiens, UniProt P43220)
Sequence of hGLP-1R (P43220 24-463): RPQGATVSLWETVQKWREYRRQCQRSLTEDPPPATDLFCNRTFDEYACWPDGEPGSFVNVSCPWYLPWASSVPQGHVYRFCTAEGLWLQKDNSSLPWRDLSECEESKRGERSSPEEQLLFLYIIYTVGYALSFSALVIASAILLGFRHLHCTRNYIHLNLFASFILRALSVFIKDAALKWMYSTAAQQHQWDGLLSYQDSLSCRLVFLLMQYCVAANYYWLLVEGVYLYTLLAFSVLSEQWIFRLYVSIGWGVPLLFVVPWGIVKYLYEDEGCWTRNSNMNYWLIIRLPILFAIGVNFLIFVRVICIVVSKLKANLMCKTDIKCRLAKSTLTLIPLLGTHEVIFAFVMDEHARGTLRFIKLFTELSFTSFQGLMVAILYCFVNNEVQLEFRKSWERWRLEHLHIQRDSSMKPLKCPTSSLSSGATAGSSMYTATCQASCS

Sequence of human glucagon receptor (human) (P47871 26-477): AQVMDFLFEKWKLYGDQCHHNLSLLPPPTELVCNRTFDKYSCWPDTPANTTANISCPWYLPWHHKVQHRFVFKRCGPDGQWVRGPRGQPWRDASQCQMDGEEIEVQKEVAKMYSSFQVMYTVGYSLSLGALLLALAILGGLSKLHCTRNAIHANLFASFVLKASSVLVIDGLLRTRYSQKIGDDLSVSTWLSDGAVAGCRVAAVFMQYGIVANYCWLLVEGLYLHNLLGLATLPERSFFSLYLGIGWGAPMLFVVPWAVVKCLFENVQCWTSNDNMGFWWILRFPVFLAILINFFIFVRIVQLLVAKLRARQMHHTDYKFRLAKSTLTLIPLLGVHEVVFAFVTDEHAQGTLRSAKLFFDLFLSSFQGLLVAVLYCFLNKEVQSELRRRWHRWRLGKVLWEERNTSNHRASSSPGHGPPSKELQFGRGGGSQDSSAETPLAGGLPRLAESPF
Sequence of human GLP1-R (SNAP-GLP-1R expressed in HEK293 cells) (human) (P43220 24-463): as the sequence (P43220 24-463) above

Binder	Relative cAMP EC50 [1] [nM]	cAMP Rel EC50, nM (in the presence of 1% HSA) [1] [nM]	Relative cAMP EC50 [2] [nM]	cAMP Rel EC50, nM (in the presence of 1% HSA) [2] [nM]	GLP1R Internalization EC50 [3] [nM]	Internalization % TOP [3] [%]	Relative cAMP EC50 [4] [nM]	cAMP Rel EC50, nM (in the presence of 1% HSA) [4] [nM]	cAMP Rel EC50 (in the presence of 1% HSA) [1] [nM]	cAMP Rel EC50 (in the presence of 1% HSA) [2] [nM]	cAMP Rel EC50 (in the presence of 1% HSA) [4] [nM]
Y[Aib]QGTFTSDFS[Dab][αMeL]LDKK([AEEA-γGlu-C18 diacid])AQ[Aib]AFIEYLLEGGPSSGAPPPGGS-NH2 [Example 67]	3.7	781	0.34	73.3	50.9	31.1	4.07	683	–	–	–
Y[Aib]QGTFTSDFS[Dap][αMeL]LDKK([AEEA-γGlu-C18 diacid])AQ[Aib]AFIEYLLEGGPSSGAPPPGGS-NH2 (ends and bridges not checked) [Example 68]	8.55	1160	0.46	85.1	95.2	33.8	3.07	612	–	–	–
YXQGTFTSDFSXXLDKKAQXAFIEYLLEGGPSSGAPPPGGSX (synthetic construct; SITE 2: note = 2-Aminoisobutyric Acid; SITE 12: note = L-ornithine; SITE 13: note = alpha-methyl-leucine; SITE 17: note = Lysine is chemically modified through conjugation of the epsilon-amino group of the Lysine side chain with (2-[2-(2-Amino-ethoxy)-ethoxy]-acetyl)-(gamma-Glu)) [Example 66]	3.71	415	0.219	29.9	42.1	46.3	3.86	329	–	–	–
YXQGTFTSDFSKXLDKKAQXAFIEYLLEXGPSSGAPPPSGS (synthetic construct; SITE 2: note = 2-Aminoisobutyric Acid; SITE 13: note = alpha-methyl-leucine; SITE 17: note = Lysine is chemically modified through conjugation of the epsilon-amino group of the Lysine side chain with (2-[2-(2-Amino-ethoxy)-ethoxy]-acetyl)-(gamma-Glu)-CO-(CH2) 18-CO2H; SITE 20: n) [Example 45]	2.08	–	0.112	–	52.6	62.1	1.52	–	879	33.4	493
YXQGTFTSDFSKXLDKKAQXAFIEYLLEXGPSSGEPPPSEG (Aib, αMeL; acylated Lys; C-terminal amide; synthetic construct; SITE 2: note = 2-Aminoisobutyric Acid; SITE 13: note = alpha-methyl-leucine; SITE 17: note = Lysine is chemically modified through conjugation of the epsilon-amino group of the Lysine side chain with (2-[2-(2-Amino-ethoxy)-ethoxy]-acetyl)-(gamma-Glu)-CO-(CH2) 16-CO2H; SITE 20: n) [Example 46]	1.53	–	0.0947	–	41	58.1	4.04	–	393	19.6	601
YXQGTFTSDFSKXLDKKAQXQFIEYLLEGGPSSGAPPPSEG (synthetic construct; SITE 2: note = 2-Aminoisobutyric Acid; SITE 13: note = alpha-methyl-leucine; SITE 17: note = Lysine is chemically modified through conjugation of the epsilon-amino group of the Lysine side chain with (2-[2-(2-Amino-ethoxy)-ethoxy]-acetyl)-(gamma-Glu)-CO-(CH2) 16-CO2H; SITE 20: n) [Example 51]	5.15	856	0.421	98.4	89.2	55.7	5.8	1210	–	–	–
YXQGTFTSDFSXXLDKKAQXAFIEYLLEXGPSSGAPPPGEG (synthetic construct; SITE 2: note = 2-Aminoisobutyric Acid; SITE 12: note = L-ornithine; SITE 13: note = alpha-methyl-leucine; SITE 17: note = Lysine is chemically modified through conjugation of the epsilon-amino group of the Lysine side chain with (2-[2-(2-Amino-ethoxy)-ethoxy]-acetyl)2-(gamma-Glu)) [Example 70]	6.04	717	0.102	27.4	60	61.3	2.71	620	–	–	–
YXQGTFTSDFSKXLDKKAQXAFIEYLLEXGPSSGAPPPGEG (synthetic construct; SITE 2: note = 2-Aminoisobutyric Acid; SITE 13: note = alpha-methyl-leucine; SITE 17: note = Lysine is chemically modified through conjugation of the epsilon-amino group of the Lysine side chain with (2-[2-(2-Amino-ethoxy)-ethoxy]-acetyl)2-(gamma-Glu)-CO-(CH2 )18-CO2H; SITE 20:) [Example 55]	5.2	960	0.0856	27.8	79.5	70.7	1.96	479	–	–	–
YXQGTFTSDFSXXLDKKAQXAFIEYLLEXGPSSGAPPPSEG (synthetic construct; SITE 2: note = 2-Aminoisobutyric Acid; SITE 12: note = L-ornithine; SITE 13: note = alpha-methyl-leucine; SITE 17: note = Lysine is chemically modified through conjugation of the epsilon-amino group of the Lysine side chain with (2-[2-(2-Amino-ethoxy)-ethoxy]-acetyl)2-(gamma-Glu)) [Example 71]	8.74	2800	0.105	48.1	58.8	68.6	3.12	1010	–	–	–
YXQGTFTSDFSXXLDKKAQXAFIEYLLEXGPSSGEPPPGEG (synthetic construct; SITE 2: note = 2-Aminoisobutyric Acid; SITE 12: note = L-ornithine; SITE 13: note = alpha-methyl-leucine; SITE 17: note = Lysine is chemically modified through conjugation of the epsilon-amino group of the Lysine side chain with (2-[2-(2-Amino-ethoxy)-ethoxy]-acetyl)2-(gamma-Glu)) [Example 69]	4.75	387	0.136	25.6	71.9	58.2	3.25	279	–	–	–
